The source of these data is article PMC2814137, “Crystal Structural and Functional Analysis of the Putative Dipeptidase from Pyrococcus horikoshii OT3” (Journal of Biophysics, 2009).

As usually defined, the Km is the substrate concentration at which the rate is half of its maximum. What is called kcat is the maximal rate divided by the concentration of active sites. As usually defined, the stoichiometry N is the number of molecules, sites or subunits per partner or assembly.

Substrate in series [1]: CC(C)[C@H](N)C(=O)N1CCC[C@H]1C(=O)O
Briefly: colorimetric ninhydrin prolidase assay. It counts as biochemical, Pyrococcus horikoshii. As to conditions: 1.2 mM CoCl2, 50 mM MOPS pH 7.0, 100°C, hydrochloride salt.

Series [2] concerns the molecule itself. Briefly: AUC; sedimentation equilibrium, 20°C, 13 K rpm, three protein concentrations between 0.93 and 0.31 mg/mL, 20 mM Tris pH 8.0, 100 mM NaCl; monomer/dimer.

B1: putative dipeptidase (Phdpd) from Pyrococcus horikoshii OT3 (enzyme, UniProt O58691 1-356, looked up)
chain: MRLEKFIHLLGERGFDGALISPGTNLYYLTGLRLHEVGERLAILAVSAEGDYRFLAPSLYENVVNNFPATFWHDGENPYAKLREILEELGISKGRILIEDTMRADWLIGIMKLGKFTFQPLSSLIKELRMIKDKEEVKMMEHASRIADKVFEEILTWDLIGMKERELALKIELLIRELSDGIAFEPIVASGENAANPHHEPGERKIRKGDIIILDYGARWKGYCSDITRTIGLGELDERLVKIYEVVKDAQESAFKAVREGIKAKDVDSRAREVISKAGYGEYFIHRTGHGLGLDVHEEPYIGPDGEVILKNGMTFTIEPGIYVPGLGGVRIEDDIVVDEGKGRRLTKAERELIIL
notes: putative dipeptidase / X-Pro dipeptidase (prolidase), Project ID PH0974, Pyrococcus horikoshii OT3; No tag is mentioned; the plasmid was made by the 'super-rare-cutter system' (manuscript in preparation); A selenomethionine-labelled crystal was used for MAD phasing only; also called PH0974; X-Pro dipeptidase (prolidase) of Project ID PH0974; source: E. coli BL21-CodonPlus (DE3)-RIL, purified …
For B1, in series [1], the Km is given as 5.0 mM and the kcat stood at 541 s⁻¹. The “stoichiometry N” value in series [2] was determined as 2.
